{"source": "paper PMC10991417", "origin": "cited, not measured here", "target": "Vasa CTD (Drosophila melanogaster) (UniProt P09052)", "sequence (P09052 463-623)": "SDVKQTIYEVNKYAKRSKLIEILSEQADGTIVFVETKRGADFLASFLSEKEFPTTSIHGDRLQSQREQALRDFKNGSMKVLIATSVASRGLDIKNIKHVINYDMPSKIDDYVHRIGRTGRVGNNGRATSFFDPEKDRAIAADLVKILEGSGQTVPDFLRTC"}
{"substance": "Oskar eLOTUS (from UniProt P25158)", "values": [{"measurement": "Kd", "result": 10, "unit": "µM"}]}
